Read-outs that look alike come from different tables or passages of the source.
What was measured:
[1] = biological target: T1, Fcα/µ receptor (R&D systems) (UniProt Q8WWV6 17-450); experiment: ELISA, Fcα/µ receptor coated at 100 ng/well; detection HRP anti-IgM (F5µ)
T1 sequence: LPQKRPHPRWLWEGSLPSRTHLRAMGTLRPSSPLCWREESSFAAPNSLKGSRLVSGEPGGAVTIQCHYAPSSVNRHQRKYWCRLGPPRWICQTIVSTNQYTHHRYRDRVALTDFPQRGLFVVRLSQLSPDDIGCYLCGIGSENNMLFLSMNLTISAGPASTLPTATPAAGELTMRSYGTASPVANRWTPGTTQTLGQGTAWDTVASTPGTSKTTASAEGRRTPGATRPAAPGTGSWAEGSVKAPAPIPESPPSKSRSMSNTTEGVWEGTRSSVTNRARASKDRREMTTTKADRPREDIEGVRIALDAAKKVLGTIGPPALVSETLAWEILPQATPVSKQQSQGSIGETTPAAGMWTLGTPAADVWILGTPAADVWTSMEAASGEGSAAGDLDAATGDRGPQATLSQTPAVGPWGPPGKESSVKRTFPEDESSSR

[2] = biological target: T2, pIgR (polymeric Ig receptor; R&D systems) (UniProt P01833 19-638); experiment: ELISA, pIgR coated at 100 ng/well; detection HRP anti-IgM (F5µ)
T2 construct: also called pIg receptor
T2 sequence (P01833 19-638 limits assumed): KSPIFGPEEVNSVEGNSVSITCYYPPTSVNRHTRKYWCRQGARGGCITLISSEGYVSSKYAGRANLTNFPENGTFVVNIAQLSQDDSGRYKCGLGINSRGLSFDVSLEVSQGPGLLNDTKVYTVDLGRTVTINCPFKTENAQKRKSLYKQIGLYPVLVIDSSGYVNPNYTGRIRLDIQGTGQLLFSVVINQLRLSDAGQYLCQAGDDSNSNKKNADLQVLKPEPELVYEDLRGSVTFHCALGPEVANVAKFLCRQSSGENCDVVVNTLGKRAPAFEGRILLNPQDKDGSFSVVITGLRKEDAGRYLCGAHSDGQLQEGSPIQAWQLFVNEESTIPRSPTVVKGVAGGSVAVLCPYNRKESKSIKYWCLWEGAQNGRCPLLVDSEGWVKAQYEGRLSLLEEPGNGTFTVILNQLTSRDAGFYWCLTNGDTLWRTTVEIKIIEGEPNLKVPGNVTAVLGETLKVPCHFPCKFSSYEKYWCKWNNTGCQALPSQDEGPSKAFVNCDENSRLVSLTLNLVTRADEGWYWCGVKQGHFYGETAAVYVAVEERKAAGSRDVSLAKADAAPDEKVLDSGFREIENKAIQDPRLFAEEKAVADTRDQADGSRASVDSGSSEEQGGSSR

HLA-G protein antigen [3] = biological target: T3, HLA-G protein antigen (human, UniProt P17693 25-308); experiment: SPR according to Example 1-4-1; HLA-G antigen
T3 construct: also called HLA-G antigen

[4] = biological target: T4, HLA-G naturally expressed on JEG-3 cells (human, UniProt P17693 25-338); experiment: flow cytometry on JEG-3 cells that naturally express HLA-G; detection anti-IgM-PE or anti-IgG Fc-FITC; MFI
T4 construct: whole, on cells; also called HLA-G expressing cells; HLA-G receptor in the cell

[5] = biological target: T5, HLA-G-6× his tag (IMBiologics) (human, UniProt P17693 25-308); experiment: blocking ELISA: ILT-2 antigen coated at 150 ng/well, HLA-G-6× his added with the dilution, detection HRP anti-6× his; blocked ligand ILT-2
T5 construct: also called recombinant HLA-G protein

[6] = biological target: T5, HLA-G-6× his tag (IMBiologics); experiment: as above; remark: listed apart in the source
HLA-G protein antigen [7] = biological target: T3, HLA-G protein antigen; experiment: ELISA according to Example 1-4-1
HLA-G protein antigen [8] = biological target: T3, HLA-G protein antigen; experiment: ELISA on HLA-G antigen, according to Example 1-4-1

B1: [(CMVpHLA)2-(linker)2-(IgG Fc region)-(IgM Fc region)]5-(J chain D105K) (Fc fusion)
chain (part 1 of 2): […]
chain (part 2 of 2): QDTAIRVFAIPPSFASIFLTKSTKLTCLVTDLTTYDSVTISWTRQNGEAVKTHTNISESHPNATFSAVGEASICEDDWNSGERFTCTVTHTDLPSPLKQTISRPKGVALHRPDVYLLPPAREQLNLRESATITCLVTGFSPADVFVQWMQRGQPLSPEKYVTSAPMPEPQAPGRYFAHSILTVSEEEWNTGETYTCVVAHEALPNRVTERTVDKSTGKPTLYNVSLVMSDTAGTCY
chain: […]
notes: not shown: IgG Fc
- binding result [1]: no binding

B2: [(CMVpHLA)2-(linker)2-(IgG Fc region)-(IgM Fc region)]5-(J chain R106A) (Fc fusion)
chain (part 1 of 2): […]
chain (part 2 of 2): B1 chain (part 2 of 2)
chain: […]
notes: not shown: IgG Fc
- binding result [1]: no binding

B3: [(CMVpHLA)2-(linker)2-(IgG Fc region)-(IgM Fc region)]5-(J chain R106V) (Fc fusion)
chain (part 1 of 2): […]
chain (part 2 of 2): B1 chain (part 2 of 2)
chain: […]
notes: not shown: IgG Fc
- binding result [2]: no binding

B4: [(CMVpHLA)2-(linker)2-(IgG Fc region)-(IgM Fc region)]5-(J chain N107F) (Fc fusion)
chain (part 1 of 2): […]
chain (part 2 of 2): B1 chain (part 2 of 2)
chain: […]
notes: not shown: IgG Fc
- binding result [1]: no binding

B5: [(CMVpHLA)2-(linker)2-(IgG Fc region)-(IgM Fc region)]5-(J chain R106Q) (Fc fusion)
chain (part 1 of 2): […]
chain (part 2 of 2): B1 chain (part 2 of 2)
chain: […]
notes: not shown: IgG Fc
- binding result [1]: no binding

B6: (A2014)2-(IgG Fc region) (antibody, V domains shown)
VH: QVQLQQSGPGLLKPSQTLSLTCAISGDSVSSNRAAWNWIRQSPSRGLEWLGRTYYRSKWYNDYAVSVQGRITLIPDTSKNQFSLRLNSVTPEDTAVYYCASVRAVAPFDYWGQGVLVTVSS
VL: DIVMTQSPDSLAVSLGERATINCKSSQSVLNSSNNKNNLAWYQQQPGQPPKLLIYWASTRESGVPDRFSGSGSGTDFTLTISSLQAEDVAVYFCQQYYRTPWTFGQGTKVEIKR
notes: also called (A2014)-(IgG Fc); (A2014)-(IgGFc) control protein
- Kd (HLA-G protein antigen [3]): 25.9 pM
- koff (HLA-G protein antigen [3]): 0.000305 s⁻¹
- kon (HLA-G protein antigen [3]): 1.18e+07 M⁻¹ s⁻¹
- EC50 (read off the curve) [4]: ~700 pM
- IC50 (read off the curve) [5]: ~30000 pM
- IC50 (read off the curve) [6]: ~8000 pM

B7: [(A2014)2-(IgD hinge region)2-(IgM Fc region)]6-(J chain)0 (Fc fusion)
heavy: QVQLQQSGPGLLKPSQTLSLTCAISGDSVSSNRAAWNWIRQSPSRGLEWLGRTYYRSKWYNDYAVSVQGRITLIPDTSKNQFSLRLNSVTPEDTAVYYCASVRAVAPFDYWGQGVLVTVSSASTKGPSVFPLAPSSKSTSGGTAALGCLVKDYFPEPVTVSWNSGALTSGVHTFPAVLQSSGLYSLSSVVTVPSSSLGTQTYICNVNHKPSNTKVDKKVEPKSCRNTGRGGEEKKKEKEKEEQEERETKTPECPSHTQPLGVIAELPPKVSVFVPPRDGFFGNPRKSKLICQATGFSPRQIQVSWLREGKQVGSGVTTDQVQAEAKESGPTTYKVTSTLTIKESDWLSQSMFTCRVDHRGLTFQQNASSMCVPDQDTAIRVFAIPPSFASIFLTKSTKLTCLVTDLTTYDSVTISWTRQNGEAVKTHTNISESHPNATFSAVGEASICEDDWNSGERFTCTVTHTDLPSPLKQTISRPKGVALHRPDVYLLPPAREQLNLRESATITCLVTGFSPADVFVQWMQRGQPLSPEKYVTSAPMPEPQAPGRYFAHSILTVSEEEWNTGETYTCVVAHEALPNRVTERTVDKSTGKPTLYNVSLVMSDTAGTCY
light: not shown
- fold improvement of EC50 against the (A2014)-(IgGFc) control protein (HLA-G protein antigen [7]): ≥ 1000 fold
- Kd (HLA-G protein antigen [3]): 2.32 pM
- koff (HLA-G protein antigen [3]): 3.51e-05 s⁻¹
- kon (HLA-G protein antigen [3]): 1.48e+07 M⁻¹ s⁻¹
- EC50 (read off the curve) (HLA-G protein antigen [8]): ~40 pM

From patent publication US20250257137A1 (IMBIOLOGICS, published 2025)
